Measurements reported in publication PMC6087429 (Structure(London, England:1993), 2018).

Molecular target: NDR1 MBD and kinase domain (NDR1^MBD-KD, residues 12-418), wild type (human, UniProt Q15208 12-418)
Assay: HDX-MS

Chain of NDR1 MBD and kinase domain (NDR1^MBD-KD, residues 12-418), wild type (Q15208 12-418): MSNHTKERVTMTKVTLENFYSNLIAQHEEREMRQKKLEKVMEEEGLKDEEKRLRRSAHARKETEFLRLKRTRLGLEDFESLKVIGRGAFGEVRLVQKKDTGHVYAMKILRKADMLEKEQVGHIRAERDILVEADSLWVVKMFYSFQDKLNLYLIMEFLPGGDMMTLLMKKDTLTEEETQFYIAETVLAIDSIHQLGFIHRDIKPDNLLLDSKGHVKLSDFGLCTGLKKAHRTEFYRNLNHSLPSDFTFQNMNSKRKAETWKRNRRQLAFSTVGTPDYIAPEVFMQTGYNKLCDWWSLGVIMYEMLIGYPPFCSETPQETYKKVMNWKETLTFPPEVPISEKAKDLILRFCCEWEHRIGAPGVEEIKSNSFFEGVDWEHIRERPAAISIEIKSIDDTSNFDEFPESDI

B1: MOB1A (amino acids 2-216), recombinant (natural protein, human, UniProt Q9H8S9 2-216, looked up)
chain: SFLFSSRSSKTFKPKKNIPEGSHQYELLKHAEATLGSGNLRQAVMLPEGEDLNEWIAVNTVDFFNQINMLYGTITEFCTEASCPVMSAGPRYEYHWADGTNIKKPIKCSAPKYIDYLMTWVQDQLDDETLFPSKIGVPFPKNFMSVAKTILKRLFRVYAHIYHQHFDSVMQLQEEAHLNTSFKHFIFFVQEFNLIDRRELAPLQELIEKLGSKDR
B1: binds.
